The record followed here is article PMC5452035, “Structural insight into recognition of phosphorylated threonine‐4 of RNA polymerase II C‐terminal domain by Rtt103p” (EMBO Reports, 2017).

What all share (test): fluorescence polarisation; fluorescence anisotropy; Rtt103p CID titrated into 10 nM N-terminally FAM-labelled CTD peptide; 10°C; 35 mM KH2PO4, 100 mM KCl, pH 6.8; 1:1 model with non-specific binding (DynaFit)
Assay [1] concerns the target FAM-PSY(pS)….
Assay [2] concerns the target FAM-PSY(pS)P(pT)….
Assay [3] concerns the target FAM-PSYSP(pT)SPSYSP(pT)SPS.
Assay [4] deals with FAM-….
Assay [5] concerns the target FAM-PSYSP(pT)….

For orientation: Kd means the free concentration of one partner at which half of the binding sites on the other are occupied at equilibrium, for simple one-to-one binding. Higher therefore signals weaker binding. On to “Rtt103p CTD-interacting domain (CID) (3-131-6xHIS) (from UniProt Q05543 3-131) (domain or fragment)”, for which the Kd worked out at 6 µM in assay [1]; 43 µM in assay [2]; 6 µM in assay [3]; 64 µM in assay [4]; 15 µM in assay [5].
